According to the supplement of paper PMC12042874:
± gives the uncertainty stated by the source.

Experiment: amyloid nucleation score (Sup35N fusion, yeast selection) (log enrichment); library NNK2; higher = more nucleation; inactive = no reads after selection
How it was run: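 The nucleation score is the DiMSum log enrichment of output over input reads, centred on the mode score of non-aggregating sequences. Only sequences with 100 or more input reads were scored, using Illumina sequencing of input and output plasmid inserts. Psi-negative yeast expressing Sup35N fused to peptides of 20 random codons were induced 24 hours with 100 μM copper sulfate and grown 7 days at 30°C on medium lacking adenine and uracil.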

Substance | amyloid nucleation score
LCLEAWERRCI | -0.588 ± 0.17
LCLIGRYRMSERALRLRWLV | 2.54 ± 0.11
LCNAKAS | -0.815 ± 0.64
LCNSYYFFDSCVIEPYIPLL | 5.646 ± 0.054
LCPYYNLWS | inactive
LCSWLEMGFIIRFAGIVRLD | -0.292 ± 0.54
LCVEELMTCVCWVRS | 0.47 ± 0.26
LCVIIMFLIIYYNEEFVWSQ | inactive
LCYHLYTRVITCFLLIDLVC | -0.27 ± 1.1
LCYPCRACPGTKNALADRLG | 3.56 ± 0.087
LDCIS | -0.647 ± 0.55
LDDPGLK | 0.76 ± 0.14
LDDVNMWFHIGNGRGGGELW | 0.092 ± 1.1
LDIYYFKKNSWAFHGSAGYP | 1.87 ± 0.11
LDKAIHSWGVLDWAVKQDNA | 0.293 ± 0.26
LDLCTPRSNKTMVNHDINYF | -1.64 ± 0.77
LDLMKSSLGCQKG | -0.001 ± 0.23
LDMGCNRPEVYGNKCAMVSW | 0.75 ± 0.21
LDTCVFHHLVGIEKATIYR | 0.455 ± 0.48
LDVIDGYWTGRMTSSFSWMN | 0.679 ± 0.47
LDYLDSVSINGIVQFKQMVW | -0.285 ± 0.26
LELVCRPISMALLEEWKGTR | 0.393 ± 0.48
LESVWHILGGFGIMVFYITK | inactive
LESYSQCTLTHSNCVLTDEC | 0.909 ± 0.57
LEVHKGGLNVLSHEGLDVET | 1.19 ± 0.4

Substance | amyloid nucleation score
LEYERC | -0.097 ± 1.1
LFAYNDAFSEYFTITYVYQ | -1.14 ± 1.1
LFCSYPNTASRKLAIGIVAS | 0.438 ± 0.55
LFFTKGKLFNEAI | inactive
LFIRSIRPMDVVGVTLSAVE | 0.764 ± 0.41
LFISVSYSEFVFQIQDALRC | 1.48 ± 0.12
LFLLIIFLCTTYVVIKDPTH | 2.73 ± 0.12
LFLSLRVRRYVQHKKSGSAG | 0.082 ± 1.1
LFNEDACTFLTMCANIKVGQ | 4.97 ± 0.081
LFPFRASRGPVPYKRDQ | 1.89 ± 0.52
LFQSLNLISINSVVPYEPVT | 2.43 ± 0.092
LFSCFKTEWFCITRMDGLIM | 5.731 ± 0.036
LFSILAGS | 0.575 ± 0.46
LFTIVTTFKRS | 6.443 ± 0.056
LFVALVGDLFCCWVCGSYGV | -1.43 ± 0.78
LFVASVSLTAHNRGGDTWRR | 5.8 ± 0.084
LFVLDNMDDIWNSIISWVGR | -0.295 ± 0.65
LFVPGLNR | 0.047 ± 0.31
LFWFLCNVMERYRWNVDAYR | -0.625 ± 0.45
LFYGLGLICFLISFPIELNH | inactive
LFYGNWPVFKGVLFCAVLVG | 0.092 ± 0.79
LFYSPSVGCWFLFSYGPHIG | inactive
LGGSSENYGVDCNYYPEMWG | -1.24 ± 0.54
LGGTY | -0.449 ± 0.64
LGGVSSHSELMPRVKVNWLT | inactive

Substance | amyloid nucleation score
LGGWLNGKGDPSMTASTSAS | 0.799 ± 0.32
LGHHIVFAVTPKWTYDDDIK | 0.679 ± 0.62
LGHHVQYLRFVWLWQND | 1.17 ± 0.22
LGITITARAIIE | -0.898 ± 1.1
LGLCHMLLSDAGWRVRCRGK | 0.276 ± 1
LGMCYWGLVTCH | 0.749 ± 0.38
LGNIGRTFMYHS | 1.09 ± 0.27
LGNRLSKIAVGTSFKLFKK | 0.138 ± 1.1
LGPALFICSDEGDMPL | -0.598 ± 0.63
LGSCHAMRLIEDGSGMEWMF | 0.645 ± 0.37
LGTSWHHRAKE | 3.31 ± 0.086
LGVCICPCRAPEMKDTSHDA | 4.92 ± 0.076
LGYDDGYVAGRGKADMFSLD | inactive
LGYFFGSTFSRAVLFVRLRR | -0.097 ± 0.52
LHGVVGLFKY | -1.55 ± 0.41
LHLFAKSATSLVIVFAQDLI | -0.455 ± 0.42
LHNLAAGNSRLTSNLMFALA | inactive
LHSATNG | 0.208 ± 0.37
LHTYYGMCLPRVENISENRV | inactive
LHVHLGSEGPLHNKIVDAAK | -0.168 ± 0.42
LIEAESSDRGPYVPNQCGWN | 1.11 ± 0.68
LIFLSDFLLPPSSPARDPYL | -0.719 ± 1.1
LIFSAEMNLIVTDWTVRLSS | 0.496 ± 0.8
LIGFLEEKVLLFIITWCFQ | inactive
LIISRTFVTAPM | inactive

Substance | amyloid nucleation score
LIKLMGKSLTRDRY | -0.771 ± 1.1
LILALVPLLCWMVNGW | -0.567 ± 1.1
LIMYR | -0.83 ± 0.3
LINFSFSDTAVFYVREGWEH | 6.846 ± 0.039
LIRQMYMGRFYAVNRENH | -0.743 ± 0.79
LISLTPRSSRPSNERNSSTL | 1.63 ± 0.47
LIVCRFDFPSNFSVDFFRVM | 0.14 ± 0.74
LIVYKLV | -0.094 ± 0.74
LIYGDASETLC | 0.227 ± 0.43
LKFRRYVCKVLWEAYG | 0.153 ± 0.43
LKLRAPRVMSGIVDSLMWLT | -0.32 ± 0.63
LKNRILPFSNHELIVAGLGL | -0.388 ± 1
LKNYSGLMPVI | 3.41 ± 0.068
LKPPLVAHHGNILCGFLGDG | -1.39 ± 0.78
LKVRKLSLARCVGIHTLQT | 4.4 ± 0.06
LLACVSVMFLRSSLINLDRL | -0.637 ± 0.54
LLAIVVILKSTAPGKRY | inactive
LLAKNTSRNRFTHDFVPKVR | inactive
LLASFGFRKVKIYTLPCILA | -1.15 ± 0.76
LLATSWSVLEDLYAGNDLYD | inactive
LLERSRSSIMCTTNRSLELI | 3.18 ± 0.055
LLFIIMRDLLYPTLEDTFLT | 0.317 ± 0.5
LLFMWTWVVVIGRKYANNYF | inactive
LLGGHYP | 0.844 ± 0.52
LLGGWESHSRRNVWYAAGLC | -0.711 ± 1.1

Substance | amyloid nucleation score
LLISSLLTSDLLGPSSSVMD | 1.51 ± 0.58
LLIVNCMLANYSFWIQSSGS | 5.968 ± 0.029
LLLLF | -1.58 ± 0.75
LLLNILLCIDPYIPWCLSLR | 0.974 ± 0.57
LLLNLMLVHTSMTFVRIKLR | 3.13 ± 0.12
LLLSRGFMGVSKRSMVYRRV | inactive
LLLVRFAPISV | -0.176 ± 1.1
LLNCNCIVV | 8.569 ± 0.031
LLNFYGGMWRGYLTLRYVFG | 0.201 ± 0.6
LLNVPGLVAYEIRGPMRYLF | -0.519 ± 0.44
LLPRCDGGVLVHLNDKSYKL | 1.32 ± 0.39
LLPWHRIAWDAYCMWGMSSS | 0.266 ± 0.21
LLPWSPLKVVTSGYSTF | -1.03 ± 0.78
LLRCSLHNKLTLSFDFAFVV | inactive
LLRMKTFDHWYRAREGFAYC | -0.512 ± 0.3
LLSDLFCIFVLRKSRSGGWS | 1.04 ± 0.34
LLSISCV | 0.512 ± 0.34
LLSMYRFFNTLKSC | -0.087 ± 0.33
LLVRFVLVATRRTLSTV | -0.029 ± 1.1
LLVYAQLYRVWVWF | -0.134 ± 0.22
LLWCEWKHG | 4.58 ± 0.076
LLYYPIDGQGDGWLWCVYRV | -0.067 ± 1.1
LMDERGMTKMTYFVYLLKKA | 0.661 ± 0.23
LMFLGWASRNLVDKSTFKWI | -0.843 ± 0.79
LMHFSFSVAGRAGNELLFIG | 2.46 ± 0.22

Substance | amyloid nucleation score
LMLAYRLIFDDNRTGLSSAS | 0.211 ± 0.5
LMMKKTGCTQFISRYLVRIY | -1.42 ± 1
LMPGMVGDRRGCNDK | 0.49 ± 0.26
LMWENFSRRLLYWLLCGS | inactive
LMYSTFMYHRKHWLLALNQN | 0.034 ± 1.1
LNDNSIGSVILFFSAFLLFY | 2.92 ± 0.12
LNLFWKQSGTVRLDDGWRSV | 0.969 ± 0.74
LNLKRLLLQLFSMPMPVFHV | -0.023 ± 0.49
LNMMIINISFRSKSVDGSRM | 6.945 ± 0.056
LNNYRDGLSY | 4.1 ± 0.064
LNQSKFGKVGTSSVFWLFYN | -1.01 ± 0.31
LNRCLDHRWIPKCVC | 1.36 ± 0.46
LNRISYHTYSILPNVTIMKS | 0.498 ± 0.54
LNSHSITMLLNSVCGCQSWT | 9.201 ± 0.062
LNTEMGSLKNL | 3.08 ± 0.06
LNVPGSAMNGRSRNPSF | -0.661 ± 0.48
LNVRLFSVFFSHTSSSHSEN | 3.21 ± 0.061
LNWIIVCLNN | 4.98 ± 0.058
LNYCHILSMYGNIAIIRSQF | 4.48 ± 0.048
LPCFL | 1.93 ± 0.1
LPHKIM | 0.262 ± 0.53
LPHKSLFDPLWRIGKILIQH | 0.034 ± 1.1
LPMNQGLHYKWLFFAISGGL | inactive
LPVVLAGS | -0.191 ± 0.79
LQCEIKPMGDTIMW | 1.47 ± 0.54

Substance | amyloid nucleation score
LQCGRIV | -0.204 ± 0.79
LQHSTRLNWD | 0.954 ± 0.51
LQLVMKCRVKCAFLPGGMAW | 5.246 ± 0.048
LQMLLHDQTEMFEYT | -0.112 ± 0.28
LQSKAGEPLGRDMRLFLVPV | 0.698 ± 0.58
LQTAIVGSPRLVTFRIYIER | 7.197 ± 0.065
LQVMEIYSLSIYYIYFLYIG | inactive
LQVRLDTRR | 0.043 ± 0.5
LQYAKSHRVSWDGMAANSPG | 0.067 ± 0.45
LQYINRGISRHVVKYSRSLS | -0.733 ± 0.41
LRARTVVGEYCYSLYMQFVM | 0.213 ± 0.43
LRCFRACQTRRAFEVLLLEF | -0.152 ± 1
LRCFSHRPCPKNNIVF | 0.602 ± 0.81
LRFNSNHPHFRGHLYSAVQR | 3.7 ± 0.15
LRFRATLSVLLYLWDTSRHV | 1.76 ± 0.26
LRFRKMAKKCNYVVRVVLGF | -0.273 ± 0.29
LRFRVLFVFPRDPW | -0.918 ± 0.78
LRLFCDMYTISSNAVDFVKF | inactive
LRLFYHVR | -0.641 ± 0.33
